B1: PHTF1 (parent)
chain: RVKLISNKGTETDNDPSCVHPIIK
B2: CHCHD6 (parent)
chain: MYKLSSEQFHEAASKMESTIKPRR

Variants of: B1
Assay: protein stability index of a GFP-peptide fusion (GPS, HEK-293T) (PSI 1-6); higher = more stable
Settings: c terminus: a fixed tail appended
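Also: lentivirally expressed fusions sorted by FACS into six bins by GFP to DsRed ratio, PSI derived from sequencing read proportions per bin multiplied by bin number.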

Protein stability index of substitutions, site by site:
S17: N 4.01, D 4.08, K 4.22, A 4.42, Y 3.36, R 3.99, G 4.21, P 4.41, Q 4.18, L 3.93, C 3.53, H 4.06, V 4.16, F 3.12, W 2.96, E 4.71, I 3.29, M 3.59, T 4.27
K24: G 3.76, Q 3.74, F 2.33, C 3.36, S 3.82, L 2.67, H 4.11, D 4.22, W 2.73, M 3, N 4.26, V 3.17, A 3.54, Y 2.79, P 4.27, R 4.09, E 4.13, I 2.49, T 3.68
I23: M 4.19, C 4.67, V 3.85, E 4.82, Y 4.16, W 3.52, T 4.57, Q 4.64, K 4.74, A 4.59, F 4.02, R 4.6, H 4.74, G 4.49, S 4.37, L 4.47, N 4.59, P 4.69, D 4.82
V19: I 3.84, E 4.32, H 3.87, M 3.88, L 3.68, A 4.34, R 4.21, K 4.28, W 3.19, C 3.93, Q 4.21, N 4.38, D 4.74, G 3.89, P 4.64, T 4.36, F 3.31, Y 3.86, S 4.47
H20: Y 3.91, C 3.94, E 4.76, V 3.86, P 4.02, G 4.43, A 4.3, N 4.15, R 4.26, T 4.49, W 3.32, D 4.46, S 4.11, Q 4.61, L 3.95, F 3.42, M 4.22, K 4.38, I 3.6
C18: R 4.08, W 2.77, S 4.42, N 4.5, D 4.46, F 3.79, E 4.85, T 4.42, V 4.58, P 4.03, H 4.49, G 4.3, Q 4.28, I 4.23, L 4.09, M 4.19, K 4.32, Y 3.77, A 4.01
I22: E 4.38, G 4.48, Q 4.22, Y 4.23, P 4.67, D 4.63, T 4.51, C 3.84, M 3.51, L 4.22, R 4.53, W 3.68, A 4.42, F 3.88, K 4.32, S 4.6, H 4.78, N 4.5, V 4.4
P21: Q 3.82, F 2.73, V 3.46, M 3.06, C 2.75, W 3.13, H 4.03, I 2.1, Y 3.4, R 4, D 3.95, E 4.03, L 2.3, A 3.72, S 3.89, N 3.61, K 3.84, T 3.87, G 4.08

Variants of: B2
Assay: as above
Settings: c terminus: a fixed tail appended

Protein stability index, by site and new letter:
M1: S 4, E 4.44, P 4.36, I 3.41, Q 4.24, H 4.18, R 4.33, F 3.7, A 3.87, D 5.02, C 3.59, N 4.37, L 3.06, K 4.13, G 4.53

Reference: the supplement of paper PMC10567573
